# Reference: the supplement of paper PMC12764529
# Assay: folding stability dG unfold (combined trypsin and chymotrypsin); higher = more stable
# Procedure: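 Folding stability of de novo designed mini-proteins (<80 aa, no Cys; designed by TrROS, TrMRF, ProteinMPNN and the joint model) was measured by cDNA display proteolysis with trypsin and chymotrypsin. Each protease was used at 11 concentrations in a threefold dilution series plus a no-protease condition. K50 was inferred by Bayesian fitting of sequencing counts, and dG unfold was derived against a sequence-predicted unfolded-state K50 (Tsuboyama et al. method). Sequences shown include variable-length N-terminal GS-type padding (SAGGSAGG...) inside a display construct carrying a PA tag. Rows were kept only if the AF2 dimer inter-PAE was >15, to exclude likely homo-oligomers.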
row,Sequence,folding stability dG unfold
1,DFLELPGGWKVTEILEKKRLSDGTVEIKAVVKDPNNPVETEIDVKIPIPEVPEVPVEVRLIPGTGELIGILS [r1_411_JUSTAS],< -1 kcal/mol
2,DMDFKVEDIKVDPDDGKVKIEMPIPNPNMPIAIFAPNGKIKDVKWEHYKEDGRMKIEIPVKSPDEVRAFIFS [r1_138_TrROS],< -1 kcal/mol
3,DNMDMEPEGYDPDNGHYEWEMRTDNQWTEMTMRPKPRIPIPLEELKNIADYLADQNPDNKEKAEKIAEKLAS [r1_330_TrROS],< -1 kcal/mol
4,KTYYLKAENAPFEEIVEKAREALEADPEEGAEIVIEVPGNPELLEKLDFDEIIPYDIPERPLYIVRAKAPPS [r1_467_TrMRF],< -1 kcal/mol
5,MRRTLETDEIRRLEIELRPAPGRTAVLDAVVELRDGTPVPLPFPLRLESGRLDPATVERAEREAVEEALARS [r1_124_TrMRF],< -1 kcal/mol
6,MTIEIEVTAEDLKEGKPLTAEELAKKLAEELGLEEVEVKVEVKEDGTVKITIEVKPKPPPEVVLPEELKKKS [r1_168_TrROS_Hall],< -1 kcal/mol
7,MTRTIVAEDMSIEEVKERIEALGAAEPEKGTTVVVEYPGNPEELKKLPIDKIEPREEPERESLVATKTFPAS [r1_467_JUSTAS],< -1 kcal/mol
8,MVISPALLREARRAGISDEFLKKAGDVIIPSEVANPEEVKELLAHPGVKKVYPVPPEDPEKLAAAKVVLPGS [r1_248_TrMRF],< -1 kcal/mol
9,NWKILEEEPNPDNGKRVIVIEHEPDPENGQMNMPIELFDPKKGKPRRIPVRMDSPETMIDEIKDQLPPDLIS [r1_156_TrROS],< -1 kcal/mol
10,SAGAAKEVFHETFPHPAGGPVELARNPGLDWVVLYNAGTGEPTVVPVAADETLVFPAAPGGASTFAVTSAGG [r19_118_TrMRF],< -1 kcal/mol
11,SAGAPVVEKKRTIPSPLGAPAYLVFVPEEDRIVFTRPGSGEPVELSVPPDSEVEVPAPPSGSLTYRWESAGG [r19_118_JUSTAS],< -1 kcal/mol
12,SAGASLAPGESAAFTVTTTTTTTESLPLPDGTTVTTTSTTTTTTAHTVTFPAVPVVTMPPDATDPAVRASAG [r5_770_JUSTAS],< -1 kcal/mol
13,SAGFEKIAEKLGVKPENLEIKDIEDKPVTVPDPKTGKPKERLVPVLYLEFYDPEVGKKVDAEIPLAEVASAG [r5_517_TrMRF],< -1 kcal/mol
14,SAGGATTPVTVPTTSEEEVEAIIEELNKEGLSDLIPKGGKPIPPPDSLRLVPLVITTTPGSGKTTVTLSAGG [r13_174_JUSTAS],< -1 kcal/mol
15,SAGGDNVKLRFYDPNGRLKIDEINPENGNIKVEYEGPGKPRERTVDADPDEAIDEIADNFPFPLEIEKSAGG [r13_141_TrROS],< -1 kcal/mol
16,SAGGFKPRTINIPAKPGALRNILNDLREKSPNYMVHVTNPDKGKPRHWPLDDLKDMPGPFEFRVMKMPKSAG [r5_437_TrROS],< -1 kcal/mol
17,SAGGGMDTPLYRTLPPPPVVEKREVWLSGPSKEEAEKKAKEVEEEFKKEGLEVEVKIIPAEEAEKLSSAGGS [r8_210_JUSTAS],< -1 kcal/mol
18,SAGGGMKKYTESTVPLPPGRPDVVERLRAEYPNLEVEREGPADTGTLPTTVKVPAPDGSPLASIELGSAGGS [r8_267_JUSTAS],< -1 kcal/mol
19,SAGGGMMVNLKFESPTSSSTVPLPVVEIRRLPSPEYEEVVVPDGTRYLFNPKTNTLLEEKEVPPLEELSAGG [r13_636_JUSTAS],< -1 kcal/mol
20,SAGGGSMVETRTLEVEEVEDGTVTLSRTLYPGGLVRLTRTRVPPADPSVAEEVETELVYVSPEEAAASAGGS [r16_161_JUSTAS],< -1 kcal/mol
21,SAGGGSSMPRRRALPDGTALETTLGDSVATVRATRYVGDRPLETAERVLPDVPPDVDAEVDFDLPPGSAGGS [r8_155_JUSTAS],< -1 kcal/mol

row,Sequence,folding stability dG unfold
1,SAGGIPLKEIKEMIENDPGETWTAQIYRMPPGPNGQMQQQTIEFPIKDPEDALDNLPPGYMVHVEPRSAGGS [r16_116_TrROS],< -1 kcal/mol
2,SAGGIREIADELGMPPGDKVTIDIERPRDGKPQTQEIEFPPDNVEDILDQMGIPPDQMKITKLKVDKDSAGG [r13_681_TrROS],< -1 kcal/mol
3,SAGGITLEELRGMPPEQLADWLVQEAQEQNKKEGNPNRPVTVEFEYGDQPLKIEITPNGKIEKIELDSAGGS [r16_431_TrROS],< -1 kcal/mol
4,SAGGKAELAANPGVVRVEVELVDPSGPVALPTREYLYPEGDPAALRAAIEAEIPADLAVARVTFTRLGSAGG [r13_849_JUSTAS],< -1 kcal/mol
5,SAGGKITITLPNGAKIEIEEEEVEVDGKTYLVFKAKITNKDGSKYLITVVIDKKTKEIVSISIEKLPSAGGS [r8_492_TrROS_Hall],> 6 kcal/mol
6,SAGGKTVEIPIPGPLTIETAKDLASKLAEEGHEDVPIKITMWHWKREPNGKPERHRHTHTYKLKVPKSAGGS [r16_44_TrROS],< -1 kcal/mol
7,SAGGMDEEELRELLAEDDATVLTEDPDGLLVAFTLPDGTARVFPVPSRERLDRLIAEVPDATVTTLPASAGG [r13_600_JUSTAS],< -1 kcal/mol
8,SAGGMITVLEEEVEERGDELVVTRLVRVSSEEDVEALANDGVPDTAREVRRLPDGTLLAELTETVPPPSAGG [r13_506_JUSTAS],< -1 kcal/mol
9,SAGGMKKRVEIPEELKKAYPDLVVEDQEVPEDSVDVTVRLPTADLKVPQVVLSPDGNPLRSFTLTSSPSAGG [r13_129_JUSTAS],< -1 kcal/mol
10,SAGGMKTIKRKSKFIKPGKGLSIDRTTELLPGGEVLEPLTFKNPKNGEKIKSFTIRIDPNGNETVENSAGGS [r16_239_JUSTAS],< -1 kcal/mol
11,SAGGMRVDYKSGKVIPEKTITIERTFSPEVVKTEEDAIELAKQEAEEAGLKDIDLKVELEGDKITVVGSAGG [r13_130_JUSTAS],< -1 kcal/mol
12,SAGGMVETTETVVEPGRIRVERRVTLPDGTEVEEVEEVPPAAGGVWEVRSRVRRGEGEEEVARREVAPSAGG [r13_728_JUSTAS],< -1 kcal/mol
13,SAGGMVTIEITDIPEDDPEKAIETAKELVEKIKKEGPPLKVKIKGNTPVFEEVAAELKKLGVETDLESAGGS [r16_450_JUSTAS],< -1 kcal/mol
14,SAGGNAEEIRDITRDIAEKHGGEVKDVEVEPEPNGRKELTFRMKEDPNTRIKITVDNNEIKITSIQPSAGGS [r8_432_TrROS],< -1 kcal/mol
15,SAGGPAEFPEGPGVVVGYTYPPDGKPAKWAIPFPDATPEEARERLAKFAEALPIPGAKVVIDDIKPGPSAGG [r13_29_TrMRF],< -1 kcal/mol
16,SAGGPAEVKIPIMKMEPPKPERVYDPDDGQERWKMEHQMRMEMIPITIRADDNPEEANDIANDFGITSAGGS [r16_467_TrROS],< -1 kcal/mol
17,SAGGPDDYPIRIAVYPPDGEIKEEITIPNNWTIKYFPNDDPRIMIQDPGNGETVPVKTPEDIKDLIQSAGGS [r8_232_TrROS],< -1 kcal/mol
18,SAGGPNKKIKIVMDPDDPNMPMSEIANFMQKEGFEPVEMVPADNLPPEKAREEAEEEGKPVIEIPFNSAGGS [r16_94_TrROS],< -1 kcal/mol
19,SAGGPVYFRIKVEQRRPDPENGEPERREQTVSIPFEYDPDNGMPADEFAEELAKTLPPGIREVEIEPFSAGG [r13_335_TrROS],< -1 kcal/mol
20,SAGGSAFKVPPGNIKEEEDFKFKFPDGNNMKIKIIRYPGKKRLMMENPGNNEPQTMPVEDLKEMLQSAGGSA [r15_329_TrROS],< -1 kcal/mol
